Data published in the supplement of paper PMC10567573.

B1: LPCAT4 (parent)
chain: HDPLYGKLFSTYLRPPHTSRGTSQ
B2: DCAF4 (parent)
chain: TTKCVRQYEGHVNEYAYLPLHVHE
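Also: lentivirally expressed fusions sorted by FACS into six bins by GFP to DsRed ratio, PSI derived from sequencing read proportions per bin multiplied by bin number.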

Variants of: B1
Experiment: protein stability index of a GFP-peptide fusion (GPS, HEK-293T) (PSI 1-6); higher = more stable
Details: c terminus: a fixed tail appended
For HDPLYDKLFSTYLRPPHTSRGTSQ [G6D], the protein stability index was 3.61.
With HDPLYAKLFSTYLRPPHTSRGTSQ [G6A] the protein stability index was 1.77.
HDPLYFKLFSTYLRPPHTSRGTSQ [G6F] showed a protein stability index of 1.58.
HDPLYMKLFSTYLRPPHTSRGTSQ [G6M] showed a protein stability index of 1.7.
For HDPLYWKLFSTYLRPPHTSRGTSQ [G6W], the protein stability index was 2.06.
HDPLYKKLFSTYLRPPHTSRGTSQ [G6K] gave a protein stability index of 1.73.
HDPLYRKLFSTYLRPPHTSRGTSQ [G6R] gave a protein stability index of 1.76.
In the case of HDPLYCKLFSTYLRPPHTSRGTSQ [G6C], the protein stability index is reported as 2.17.
HDPLYIKLFSTYLRPPHTSRGTSQ [G6I] gave a protein stability index of 1.6.
Variant HDPLYYKLFSTYLRPPHTSRGTSQ [G6Y] has a protein stability index of 2.42.
HDPLYGKHFSTYLRPPHTSRGTSQ [L8H] gave a protein stability index of 4.44.
In the case of HDPLYGKDFSTYLRPPHTSRGTSQ [L8D], the protein stability index is reported as 4.88.
Variant HDPLYGKVFSTYLRPPHTSRGTSQ [L8V] has a protein stability index of 3.62.
For HDPLYGKWFSTYLRPPHTSRGTSQ [L8W], the protein stability index was 2.37.
Variant HDPLYGKMFSTYLRPPHTSRGTSQ [L8M] has a protein stability index of 3.73.
In the case of HDPLYGKIFSTYLRPPHTSRGTSQ [L8I], the protein stability index is reported as 3.25.
HDPLYGKEFSTYLRPPHTSRGTSQ [L8E] gave a protein stability index of 4.85.
HDPLYGKNFSTYLRPPHTSRGTSQ [L8N] gave a protein stability index of 4.19.
For HDPLYGKCFSTYLRPPHTSRGTSQ [L8C], the protein stability index was 4.01.
With HDPLYGKPFSTYLRPPHTSRGTSQ [L8P] the protein stability index was 4.26.
In the case of HDPLYGKFFSTYLRPPHTSRGTSQ [L8F], the protein stability index is reported as 2.15.
Work on HDPLYGKAFSTYLRPPHTSRGTSQ [L8A] yielded a protein stability index of 4.59.
For HDPLYGKSFSTYLRPPHTSRGTSQ [L8S], the protein stability index was 4.68.
HDPLYGKGFSTYLRPPHTSRGTSQ [L8G] showed a protein stability index of 4.66.
HDPLYGKQFSTYLRPPHTSRGTSQ [L8Q] gave a protein stability index of 4.58.
Variant HDPLYGKYFSTYLRPPHTSRGTSQ [L8Y] has a protein stability index of 2.58.
HDPLYGKRFSTYLRPPHTSRGTSQ [L8R] showed a protein stability index of 4.27.
Work on HDPLYGKKFSTYLRPPHTSRGTSQ [L8K] yielded a protein stability index of 3.91.
With HDPLYGKTFSTYLRPPHTSRGTSQ [L8T] the protein stability index was 4.31.
With HDPLYGDLFSTYLRPPHTSRGTSQ [K7D] the protein stability index was 3.28.
HDPLYGWLFSTYLRPPHTSRGTSQ [K7W] showed a protein stability index of 1.96.
HDPLYGHLFSTYLRPPHTSRGTSQ [K7H] showed a protein stability index of 2.
HDPLYGVLFSTYLRPPHTSRGTSQ [K7V] gave a protein stability index of 2.68.
HDPLYGGLFSTYLRPPHTSRGTSQ [K7G] showed a protein stability index of 3.25.
HDPLYGLLFSTYLRPPHTSRGTSQ [K7L] showed a protein stability index of 2.46.
For HDPLYGALFSTYLRPPHTSRGTSQ [K7A], the protein stability index was 2.55.
Variant HDPLYGTLFSTYLRPPHTSRGTSQ [K7T] has a protein stability index of 3.43.
For HDPLYGMLFSTYLRPPHTSRGTSQ [K7M], the protein stability index was 2.65.
In the case of HDPLYGFLFSTYLRPPHTSRGTSQ [K7F], the protein stability index is reported as 1.94.
In the case of HDPLYGNLFSTYLRPPHTSRGTSQ [K7N], the protein stability index is reported as 3.36.
HDPLYGRLFSTYLRPPHTSRGTSQ [K7R] gave a protein stability index of 2.46.
For HDPLYGCLFSTYLRPPHTSRGTSQ [K7C], the protein stability index was 2.04.
Variant HDPLYGYLFSTYLRPPHTSRGTSQ [K7Y] has a protein stability index of 1.78.
Work on HDPLYGELFSTYLRPPHTSRGTSQ [K7E] yielded a protein stability index of 3.29.
HDPLYGQLFSTYLRPPHTSRGTSQ [K7Q] showed a protein stability index of 3.12.
With HDPLYGPLFSTYLRPPHTSRGTSQ [K7P] the protein stability index was 2.36.
HDPLYGILFSTYLRPPHTSRGTSQ [K7I] showed a protein stability index of 2.75.
Variant HDPLYGSLFSTYLRPPHTSRGTSQ [K7S] has a protein stability index of 2.58.
With HDSLYGKLFSTYLRPPHTSRGTSQ [P3S] the protein stability index was 2.3.
HDMLYGKLFSTYLRPPHTSRGTSQ [P3M] showed a protein stability index of 2.27.
Variant HDDLYGKLFSTYLRPPHTSRGTSQ [P3D] has a protein stability index of 3.02.
HDGLYGKLFSTYLRPPHTSRGTSQ [P3G] showed a protein stability index of 2.35.
For HDNLYGKLFSTYLRPPHTSRGTSQ [P3N], the protein stability index was 2.44.
HDHLYGKLFSTYLRPPHTSRGTSQ [P3H] gave a protein stability index of 2.98.
With HDQLYGKLFSTYLRPPHTSRGTSQ [P3Q] the protein stability index was 2.38.
Variant HDVLYGKLFSTYLRPPHTSRGTSQ [P3V] has a protein stability index of 2.76.
Variant HDCLYGKLFSTYLRPPHTSRGTSQ [P3C] has a protein stability index of 2.17.
For HDELYGKLFSTYLRPPHTSRGTSQ [P3E], the protein stability index was 3.14.
With HDKLYGKLFSTYLRPPHTSRGTSQ [P3K] the protein stability index was 2.54.
With HDILYGKLFSTYLRPPHTSRGTSQ [P3I] the protein stability index was 2.29.
For HDALYGKLFSTYLRPPHTSRGTSQ [P3A], the protein stability index was 2.5.
HDWLYGKLFSTYLRPPHTSRGTSQ [P3W] gave a protein stability index of 2.03.
HDTLYGKLFSTYLRPPHTSRGTSQ [P3T] showed a protein stability index of 2.7.
Variant HDLLYGKLFSTYLRPPHTSRGTSQ [P3L] has a protein stability index of 2.25.
HDRLYGKLFSTYLRPPHTSRGTSQ [P3R] showed a protein stability index of 2.55.
Work on HDFLYGKLFSTYLRPPHTSRGTSQ [P3F] yielded a protein stability index of 2.12.
HDYLYGKLFSTYLRPPHTSRGTSQ [P3Y] gave a protein stability index of 2.55.

Variants of: B2
Experiment: as above
Details: c terminus: a fixed tail appended
Variant TTKCVRQYEGHVNEYAYLPLHVVE [H23V] has a protein stability index of 2.19.
With TTKCVRQYEGHVNEYAYLPLHVRE [H23R] the protein stability index was 2.48.
TTKCVRQYEGHVNEYAYLPLHVSE [H23S] showed a protein stability index of 2.73.
TTKCVRQYEGHVNEYAYLPLHVYE [H23Y] showed a protein stability index of 2.24.
With TTKCVRQYEGHVNEYAYLPLHVTE [H23T] the protein stability index was 2.37.
In the case of TTKCVRQYEGHVNEYAYLPLHVPE [H23P], the protein stability index is reported as 3.32.
Work on TTKCVRQYEGHVNEYAYLPLHVWE [H23W] yielded a protein stability index of 1.9.
In the case of TTKCVRQYEGHVNEYAYLPLHVQE [H23Q], the protein stability index is reported as 3.38.
For TTKCVRQYEGHVNEYAYLPLHVHH [E24H], the protein stability index was 2.23.
With TTKCVRQYEGHVNEYAYLPLHVHM [E24M] the protein stability index was 1.84.
Variant TTKCVRQYEGHVNEYAYLPLHVHD [E24D] has a protein stability index of 2.84.
Work on TTKCVRQYEGHVNEYAYLPLHVHT [E24T] yielded a protein stability index of 2.1.
In the case of TTKCVRQYEGHVNEYAYLPLHVHS [E24S], the protein stability index is reported as 2.07.
For TTKCVRQYEGHVNEYAYLPLHVHY [E24Y], the protein stability index was 1.89.
TTKCVRQYEGHVNEYAYLPLHVHL [E24L] showed a protein stability index of 2.14.
With TTKCVRQYEGHVNEYAYLPLHVHK [E24K] the protein stability index was 2.29.
With TTKCVRQYEGHVNEYAYLPLHVHQ [E24Q] the protein stability index was 2.29.
For TTKCVRQYEGHVNEYAYLPLHVHV [E24V], the protein stability index was 2.02.
In the case of TTKCVRQYEGHVNEYAYLPLHVHC [E24C], the protein stability index is reported as 2.25.
With TTKCVRQYEGHVNEYAYLPLHVHA [E24A] the protein stability index was 1.17.
Variant TTKCVRQYEGHVNEYAYLPLHVHP [E24P] has a protein stability index of 2.24.
Variant TTKCVRQYEGHVNEYAYLPLHVHR [E24R] has a protein stability index of 2.18.
For TTKCVRQYEGHVNEYAYLPLHVHG [E24G], the protein stability index was 2.75.
TTKCVRQYEGHVNEYAYLPLHVHF [E24F] gave a protein stability index of 2.85.
In the case of TTKCVRQYEGHVNEYAYLPLHVHI [E24I], the protein stability index is reported as 2.1.
Variant TTKCVRQYEGHVNEYAYLPLHVHW [E24W] has a protein stability index of 2.67.
With TTKCVRQYEGHVNEYAYLPLHVHN [E24N] the protein stability index was 2.46.
